Legend:
[1] = in the mice; cited from earlier work
Caki-1 xenografts = assay: Caki-1 renal cell carcinoma xenografts in BALB/c-nude mice; assay type: in vivo; conditions: intramuscular
Experimental: The activity of ADI-PEG 20 was assessed in mice bearing Caki-1 (ATCC No. HTB-46™) xenografts. Renal cell carcinoma Caki-1 xenografts were established in female BALB/c-nude mice, 3-4 weeks of age with a body weight of 20 g (SLAC, Shanghai, China). To establish the tumors, 5×10^6 cells in media were mixed 1:1 with Matrigel High Concentration (BD Biosciences) and injected subcutaneously in the abdominal area of the mice. Tumor growth was regularly measured and tumor volume calculated using the formula (TV=(length×width^2)/2). When tumors reached an approximate volume of 125 mm^3, ADI-PEG20 was administered at doses level of 160, 320 and 640 IU/m^2 once every week for four weeks by intramuscular injection. Each study group had 9 mice. Mice were euthanized when tumors reached an approximate volume of 1100 mm^3. […] More than 80% tumor inhibition was achieved when 640 IU/m^2 was used.
In an additional experiment, the activity of ADI-PEG 20 as either a single agent or in combination with rapamycin was assessed in mice bearing Caki-1 xenograft. Renal cell carcinoma xenografts were established in female BALB/c-nude mice, 3-4 weeks of age weighing about 20 g (SLAC, Shanghai, China). […] Tumor growth was regularly measured and tumor volume calculated using the formula (TV=(length×width^2)/2). […]

[2] = tested on: ASS-positive colon carcinoma cell line SW1222; assay: MTS proliferation assay, adherent cells; assay type: cell-based; conditions: 0 to 10 mIU ml^−1, 120 h
Experimental: To assess the anti-proliferative effect of ADI-PEG 20 on adherent cells, cells were plated a density of 2×10^3 cells per well in a tissue culture 96-microwell plate and allowed to adhere overnight. The following day, cells were treated with ADI-PEG 20 (DesigneRx Pharmaceuticals, Vacaville, Calif., USA, a subsidiary of Polaris Group, San Diego, Calif., USA) ranging from 0 to 10 mIU ml^−1. After incubation for 120 h, cell viability was determined using (3-(4,5-dimethylthiazol-2-yl)-5-(3-carboxymethoxyphenyl)-2-(4-sulfophenyl)-2H-tetrazolium) (MTS, CellTiter 96 AQueous One Solution, Promega, Madison, Wis., USA), according to the manufacturers protocol. Twenty microliters of MTS reagent was added to the appropriate control and assay wells before the plate was incubated for 2 h at 37° C. and absorbance read at 490 nm. Absolute absorbance for each treatment was determined by subtracting the background MTS absorbance, and the mean and standard deviation was calculated. The effect of the autophagy inhibitor chloroquine (Sigma) on cell proliferation was assessed using the MTS assay.

[3] = tested on: ASS high osteosarcoma cell line MG63; assay: Sarcoma cell line panel treated with ADI-PEG 20; assay type: cell-based
SK-LC-13 xenografts = assay: Large SK-LC-13 SCLC xenografts in BALB/c-nude mice; assay type: in vivo
Experimental: The activity of ADI-PEG 20 was also assessed in mice bearing ASS-positive NCI-H69 SCLC xenografts. Small cell lung cancer xenografts were established in female BALB/c-nude mice, 3-4 weeks of age weighing ˜20 g (Charles River Labs, Wilmington, Mass., USA). To establish the tumors, 10×10^6 cells in media were mixed 1:1 with Matrigel High Concentration (BD Biosciences) and injected subcutaneously in the abdominal area of the mice. Tumor growth was regularly measured and tumor volume calculated using the formula (TV=(length×width^2)/2). All animal studies were approved by the MSKCC Institutional Animal Care and Use Committee. Mice were euthanized when tumors reached an approximate volume of 1,000 mm^3.
The anti-tumor efficacy of ADI-PEG 20 was simultaneously assessed in mice bearing either moderate or large SK-LC-13 SCLC xenografts. In the first study, treatment was initiated once tumors had reached an average size of 125 mm^3. In the large xenograft study, treatment was initiated once tumors had reached an average size of 500 mm^3. Arginine deiminase-PEG20 was administered at doses of 1, 2 and 5 IU per animal once every 5 days for 20 days (five doses). To assess the effect of sustained dosing, further groups (n=5) at all dose levels received continued administration of ADI-PEG 20 every 5 days until tumors progressed to the 1,000 mm^3 size limit. Additionally, the efficacy of ADI-PEG 20 was assessed in mice bearing ASS-positive NCI-H69 xenografts. Here, mice received five doses of 2 IU ADI-PEG 20 for 20 days once tumor had reached an average size of 150 mm^3. Arginine deiminase-PEG20 was administered by intraperitoneal injection in all studies. The specific activity of ADI-PEG 20 used in these studies is 9 IU mg^−1 of protein. Thus, 1 IU of ADI-PEG 20 per 20 g mouse is equivalent to 160 IU m^−2.
Efficacy of ADI-PEG 20 treatment in vivo was assessed by comparing means of control and treatment groups using unpaired two-tailed t-tests at the termination of control groups using GraphPad Prism (Version 5.0, GraphPad Software Inc., La Jolla, Calif., USA).

B1: ADI-PEG 20: arginine deiminase (ADI) formulated with PEG of 20,000 m.w. (protein)
chain: MSVFDSKFNGIHVYSEIGELETVLVHEPGREIDYITPARLDELLFSAILESHDARKEHQSFVKIMKDRGINVVELTDLVAETYDLASKAAKEEFIETFLEETVPVLTEANKEAVRAFLLSKPTHEMVEFMMSGITKYELGVESENELIVDPMPNLYFTRDPFASVGNGVTIHFMRYIVRRRETLFARFVFRNHPKLVKTPWYYDPAMKMSIEGGDVFIYNNETLVVGVSERTDLDTITLLAKNIKANKEVEFKRIVAINVPKWTNLMHLDTWLTMLDKNKFLYSPIANDVFKFWDYDLVNGGAEPQPQLNGLPLDKLLASIINKEPVLIPIGGAGATEMEIARETNFDGTNYLAIKPGLVIGYDRNEKTNAALKAAGITVLPFHGNQLSLGMGNARCMSMPLSRKDVKW
**Q.** With B1 as the molecule, how does the half-life [1] read?
**A.** The half-life was ~7 days.

**Q.** And the tumor growth (Caki-1 xenografts; 160, 320 and 640 IU/m^2 weekly for four weeks)?
**A.** Its tumor growth is “inhibited tumor growth in a dose dependent manner”.

**Q.** And the tumor inhibition (Caki-1 xenografts; 640 IU/m^2 weekly for four weeks)?
**A.** The tumor inhibition was “More than 80%”.

**Q.** What about the growth [2] of the same molecule?
**A.** The growth was “No effect”.

**Q.** What about the cell division [3] of the same molecule?
**A.** Its cell division is “continued to divide”.

**Q.** And the tumor growth (SK-LC-13 xenografts; 1, 2 and 5 IU, tumors 473.4±161.0 mm^3 at start)?
**A.** The tumor growth was “dose-dependent inhibition of tumor growth”.

**Q.** And the “tumor volume relative to control mice” value (SK-LC-13 xenografts; 1 IU, continued treatment, day 32 (P=0.007))?
**A.** Its value is “significantly reduce the tumor volume”.

**Q.** And the “tumor volume, continued relative to short-course treatment” value (SK-LC-13 xenografts; 1 IU, day 39)?
**A.** Its value is “moderately significant (P=0.26) reduction in tumor volume”.

**Q.** What about the “tumor size relative to control mice” value (SK-LC-13 xenografts; 1 IU, short-course, day 32 (P=0.07)) of the same molecule?
**A.** The value was “did not result in a statistical significant reduction”.

**Q.** And the “tumor volume relative to untreated controls” value (SK-LC-13 xenografts; 2 IU, continued (P=0.0007))?
**A.** The value was “significant reduction of tumor volume”.

**Q.** What about the “tumor volume relative to untreated controls” value (SK-LC-13 xenografts; 2 IU, short (P=0.004)) of the same molecule?
**A.** The value was “significant reduction of tumor volume”.

**Q.** What about the “responses, continued dosing relative to short-course” value (SK-LC-13 xenografts; 2 and 5 IU) of the same molecule?
**A.** Its value is “did not significantly improve responses”.

**Q.** And the “tumor volume relative to untreated controls” value (SK-LC-13 xenografts; 5 IU, continued (P=0.0001))?
**A.** Its value is “significant reduction of tumor volume”.

**Q.** And the “tumor volume relative to untreated controls” value (SK-LC-13 xenografts; 5 IU, short (P=0.0003))?
**A.** Its value is “significant reduction of tumor volume”.
